Measured values taken from US20250320281A1.

Experiments:
Test in all cases: cell-based or functional assay
[1] = target: HIV-1 JRFL Env (pseudovirus) (HIV-1)
[2] = target: HIV-1 Env of isolate VLGCB3 (subtype B) (HIV-1)
[3] = target: HIV-1 envelope glycoprotein (Env) of isolate MGRM-C-013 (HIV-1)
[4] = target: HIV-1 Env of isolate 6535.3 (HIV-1)
[5] = target: HIV-1 Env of isolate 92UG046 (HIV-1)
[6] = target: HIV-1 Env of isolate 92UG031 (HIV-1)
[7] = target: HIV-1 Env of isolate MGRM-C-026 (pseudovirus) (HIV-1)
[8] = target: HIV-1 Env of isolate 94UG103 (HIV-1)
[9] = target: HIV-1 envelope glycoprotein (Env) of isolate MGRM-C-012 (HIV-1)
[10] = target: HIV-1 envelope glycoprotein (Env) of isolate MGRM-C-017 (HIV-1)
[11] = target: HIV-1 Env of isolate 98CN006 (HIV-1)
[12] = target: HIV-1 Env of isolate SC422661.8 (subtype B) (HIV-1)
[13] = target: HIV-1 Env of isolate MGRM-Chronic-B-010 (subtype B) (HIV-1)
[14] = target: HIV-1 Env of isolate MGRM-AE-004 (subtype AE) (HIV-1)
[15] = target: HIV-1 Env of isolate MGRM-A-014 (subtype A) (HIV-1)
[16] = target: HIV-1 Env of isolate CMU02 (clade AE), on pseudovirus (HIV-1)
[17] = target: HIV-1 Env of isolate MGRM-A-013 (subtype A) (HIV-1)
[18] = target: HIV-1 Env of isolate MG RM-D-001 (HIV-1)
[19] = target: HIV-1 Env of isolate MGRM-C-001 (subtype C) (HIV-1)
[20] = target: HIV-1 Env of isolate MGRM-Chronic-B-023 (subtype B) (HIV-1)
[21] = target: HIV-1 envelope glycoprotein (Env) of isolate MGRM-C-009 (HIV-1)
[22] = target: HIV-1 Env of isolate 92TH021 (subtype AE) (HIV-1)
[23] = target: HIV-1 Env of isolate MGRM-Chronic-B-004 (subtype B) (HIV-1)
[24] = target: HIV-1 93UG077 Env (pseudovirus) (HIV-1)
[25] = target: HIV-1 Env of isolate 94KE105 (subtype AC) (HIV-1)
[26] = target: HIV-1 envelope glycoprotein (Env) of isolate MGRM-A-010, clade A (HIV-1)
[27] = target: HIV-1 Env of pseudovirus MGRM-G-015 (HIV-1, clade G isolate MGRM-G-015)
[28] = target: HIV-1 NL43 envelope glycoprotein (Env) on pseudovirus (HIV-1)
[29] = target: HIV-1 93IN905 envelope glycoprotein (Env) on pseudovirus (HIV-1)
[30] = target: HIV-1 Env of pseudovirus MGRM-F1-022 (HIV-1)
[31] = target: HIV-1 94UG114 envelope glycoprotein (Env) on pseudovirus (HIV-1 (isolate 94UG114, clade D))
[32] = target: HIV-1 Env of isolate MGRM-D-019 (clade D pseudovirus) (HIV-1)
[33] = target: HIV-1 CMU02 envelope glycoprotein (Env) on pseudovirus (HIV-1)
[34] = target: HIV-1 Env of pseudovirus MGRM-F1-018 (HIV-1)
[35] = target: HIV-1 Env of pseudovirus MGRM-AE-003 (clade CRF01_AE) (HIV-1)
[36] = target: HIV-1 Env of pseudovirus MGRM-AG-009 (clade CRF_AG) (HIV-1)
[37] = target: HIV-1 Env of isolate 92RW024 (clade A pseudovirus) (HIV-1)
[38] = target: HIV-1 envelope glycoprotein (Env) of isolate 94UG103, clade A (HIV-1)
[39] = target: HIV-1 Env of isolate NL43, clade B, on pseudovirus (HIV-1)
[40] = target: HIV-1 Env of isolate 93TH305, clade B, on pseudovirus (HIV-1)

5345_I01 (PGT-137) (antibody), sequence (VH): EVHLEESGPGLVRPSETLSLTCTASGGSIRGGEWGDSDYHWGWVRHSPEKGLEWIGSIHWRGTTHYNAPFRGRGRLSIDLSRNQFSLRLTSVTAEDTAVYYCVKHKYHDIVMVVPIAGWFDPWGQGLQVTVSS
5345_I01 (PGT-137) (antibody), sequence (VL): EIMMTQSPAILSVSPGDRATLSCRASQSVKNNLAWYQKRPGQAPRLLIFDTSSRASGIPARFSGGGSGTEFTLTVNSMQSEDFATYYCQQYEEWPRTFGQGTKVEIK
5329_C19 (PGT-136) (antibody), sequence (VH): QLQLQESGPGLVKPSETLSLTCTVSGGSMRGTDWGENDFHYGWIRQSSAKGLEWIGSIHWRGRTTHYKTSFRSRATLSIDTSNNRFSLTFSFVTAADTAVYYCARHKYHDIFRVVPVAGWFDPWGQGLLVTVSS
5329_C19 (PGT-136) (antibody), sequence (VL): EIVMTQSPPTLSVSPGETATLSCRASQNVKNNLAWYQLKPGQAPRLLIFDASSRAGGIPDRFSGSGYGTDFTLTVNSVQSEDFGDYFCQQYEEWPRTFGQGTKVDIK

| Substance | IC50 neutralization [2] | IC50 (µg/mL), pseudovirus neutralization [3] | neutralization IC50 [4] | IC50 (µg/mL), pseudovirus neutralization [5] | IC50 [6] | Primary Neutralization Index (B cell culture supernatant) [7] | IC50 [8] | IC50 (µg/mL), pseudovirus neutralization [9] | IC50 (µg/mL), pseudovirus neutralization [10] | IC50 (µg/mL), pseudovirus neutralization [11] | IC50 neutralization [12] | IC50 neutralization [13] | IC50 (µg/mL), pseudovirus neutralization [14] | IC50 (µg/mL), pseudovirus neutralization [15] | IC50 (µg/mL), pseudovirus neutralization [17] | IC50 (µg/mL), pseudovirus neutralization [18] | IC50 neutralization [19] | IC50 neutralization [20] | IC50 (µg/mL), pseudovirus neutralization [21] | IC50 (µg/mL), pseudovirus neutralization [22] | also measured |
| --- | --- | --- | --- | --- | --- | --- | --- | --- | --- | --- | --- | --- | --- | --- | --- | --- | --- | --- | --- | --- | --- |
| 5147_N06 (PGT-130) (antibody) | 4.6 µg/mL | > 50 µg/mL | 0.031 µg/mL | > 50 µg/mL | > 50 µg/mL | 3 | 1.4 µg/mL | > 50 µg/mL | > 50 µg/mL | 0.258 µg/mL | > 50 µg/mL | 0.006 µg/mL | 2.43 µg/mL | 0.161 µg/mL | > 50 µg/mL | > 50 µg/mL | > 50 µg/mL | > 50 µg/mL | > 50 µg/mL | 0.009 µg/mL | Neutralization by PGT-130, IC50 [1]: 0.0346 µg/mL; Neutralization by PGT-130, IC80 [1]: 0.751 µg/mL; Neutralization by PGT-130, IC90 [1]: 5.72 µg/mL; Neutralization by PGT-130, IC95 [1]: > 10 µg/mL; neutralization IC50 (pseudovirus) [1]: 0.0346 µg/mL; Polyclonal Transfectant Neutralization Index [7]: 1.05; IC50, pseudovirus neutralization [16]: > 10 µg/mL; IC50 neutralization [23]: 0.01 µg/mL; Neutralization by PGT-130, IC50 [24]: > 10 µg/mL; Neutralization by PGT-130, IC80 [24]: > 10 µg/mL; Neutralization by PGT-130, IC90 [24]: > 10 µg/mL; Neutralization by PGT-130, IC95 [24]: > 10 µg/mL; neutralization IC50 (pseudovirus) [24]: > 10 µg/mL; IC50 (µg/mL), pseudovirus neutralization [25]: 0.004 µg/mL |
| 5136_H01 (PGT-131) (antibody) | > 50 µg/mL | > 50 µg/mL | 0.056 µg/mL | > 50 µg/mL | > 50 µg/mL | 1.2 | 1.1 µg/mL | > 50 µg/mL | > 50 µg/mL | 35.3 µg/mL | > 50 µg/mL | 0.016 µg/mL | > 50 µg/mL | 15.4 µg/mL | > 50 µg/mL | > 50 µg/mL | > 50 µg/mL | > 50 µg/mL | > 50 µg/mL | 0.014 µg/mL | IC50 neutralization [23]: 0.04 µg/mL; IC50 (µg/mL), pseudovirus neutralization [25]: 0.013 µg/mL |
| 5343_B08 (PGT-135) (antibody) | 0.142 µg/mL | > 50 µg/mL | > 50 µg/mL | > 50 µg/mL | > 50 µg/mL | 6.5 | > 50 µg/mL | 0.017 µg/mL | > 50 µg/mL | 0.429 µg/mL | 21.8 µg/mL | > 50 µg/mL | > 50 µg/mL | 0.636 µg/mL | > 50 µg/mL | > 50 µg/mL | 10.1 µg/mL | 0.329 µg/mL | > 50 µg/mL | > 50 µg/mL | IC50 (neutralizing activity, pseudovirus) [1]: > 10 µg/mL; IC50, pseudovirus neutralization [16]: > 10 µg/mL; IC50 neutralization [23]: > 50 µg/mL; IC50 (neutralizing activity, pseudovirus) [24]: > 10 µg/mL; IC50 (µg/mL), pseudovirus neutralization [25]: 0.063 µg/mL |
| 5345_I01 (PGT-137) (antibody) | 3.36 µg/mL | > 50 µg/mL | > 50 µg/mL | > 50 µg/mL | > 50 µg/mL | 11.3 | > 50 µg/mL | 0.102 µg/mL | > 50 µg/mL | 1.22 µg/mL | > 50 µg/mL | > 50 µg/mL | > 50 µg/mL | 18.6 µg/mL | 49.2 µg/mL | > 50 µg/mL | 21.5 µg/mL | > 50 µg/mL | > 50 µg/mL | > 50 µg/mL | IC50 neutralization [23]: > 50 µg/mL; IC50 (µg/mL), pseudovirus neutralization [25]: 18.5 µg/mL |
| 5114_A19 (PGT-128) (antibody) | 0.012 µg/mL | > 50 µg/mL | 0.011 µg/mL | > 50 µg/mL | > 50 µg/mL | 17.1 | 0.011 µg/mL | 0.058 µg/mL | 1.06 µg/mL | 0.015 µg/mL | 1.58 µg/mL | 0.004 µg/mL | > 50 µg/mL | 0.007 µg/mL | 0.008 µg/mL | 0.138 µg/mL | > 50 µg/mL | > 50 µg/mL | > 50 µg/mL | 0.01 µg/mL | Polyclonal Transfectant Neutralization Index [7]: 32.2; IC50 neutralization [23]: 0.009 µg/mL; IC50 (µg/mL), pseudovirus neutralization [25]: 0.007 µg/mL |
| 1495_C14 (PGC14) (antibody) | – | – | – | – | – | – | – | – | – | – | – | – | – | – | – | – | – | – | – | – | IC50 (µg/ml), pseudovirus neutralization [26]: > 50 µg/mL; IC50 (µg/ml), pseudovirus neutralization [27]: > 50 µg/mL; IC50, pseudovirus neutralization [28]: 0.373 µg/mL; IC50, pseudovirus neutralization [29]: > 50 µg/mL; IC50 (µg/ml), pseudovirus neutralization [30]: > 50 µg/mL; IC50 (µg/ml), pseudovirus neutralization [31]: > 50 µg/mL; IC50 (µg/ml), pseudovirus neutralization [32]: > 50 µg/mL; IC50, pseudovirus neutralization [33]: > 50 µg/mL; IC50 (µg/ml), pseudovirus neutralization [34]: > 50 µg/mL; IC50 [35]: > 50 µg/mL; IC50 [36]: > 50 µg/mL; IC50 (µg/ml), pseudovirus neutralization [37]: > 50 µg/mL; IC50 (µg/ml), pseudovirus neutralization [38]: > 50 µg/mL; IC50 (µg/ml), pseudovirus neutralization [39]: 40 µg/mL; IC50 (µg/ml), pseudovirus neutralization [40]: 6 µg/mL |
| 5329_C19 (PGT-136) (antibody) | > 50 µg/mL | > 50 µg/mL | > 50 µg/mL | > 50 µg/mL | > 50 µg/mL | 6 | > 50 µg/mL | > 50 µg/mL | > 50 µg/mL | 0.406 µg/mL | > 50 µg/mL | > 50 µg/mL | > 50 µg/mL | > 50 µg/mL | > 50 µg/mL | > 50 µg/mL | 7.52 µg/mL | > 50 µg/mL | > 50 µg/mL | > 50 µg/mL | IC50 (neutralizing activity, pseudovirus) [1]: > 10 µg/mL; IC50, pseudovirus neutralization [16]: > 10 µg/mL; IC50 neutralization [23]: > 50 µg/mL; IC50 (neutralizing activity, pseudovirus) [24]: > 10 µg/mL; IC50 (µg/mL), pseudovirus neutralization [25]: > 50 µg/mL |
